Values belong to the molecule of their own block, whether it stands above or below them.
Columns and labels:
prostasin-mPBP complex = molecular target: T1, prostasin-mPBP complex (Homo sapiens, UniProt Q16651); assay: Inhibition of complex formation between prostasin and mPBP (western blot); type: binding
T1 construct: made in house; mPBP: purified from mouse seminal vesicle fluid
Experimental: (§1) The procedures were performed according to Chen et al. Briefly, purified recombinant prostasin was incubated with samples from each purification step or the final purified mPBP at 37 degrees C. for 1 hour or for various times as indicated. The binding reaction was stopped by the addition of SDS sample buffer (1×SDS sample buffer=62.5 mM Tris-Hcl at Ph 6.8, 2% (v/v) glycerol, 2% SDS (w/v) and 2% Beta-mercaptoethanol). The reaction mixtures were then boiled for 5 min, and resolved in 10% SDS-polyacrylamide gels. The resolved proteins were then transferred to nitrocellulose membranes, and analyzed with either a prostasin antibody or the mPBP antibody. Signals were detected using an ECL detection procedure with the WestPico reagents (Pierce, Rockford, Ill.) following the manufacturer's protocol. The membrane was then exposed to X-ray film (Midwest Scientific, St. Louis, Mo.) The prostasin antibody was used at 1:2,000 dilution, the mPBP antibody was used at 1:10,000 dilution, and the secondary antibody (goat anti-rabbit IgG, Sigma-Aldrich) was used at 1:10,000 dilution. All antibodies were diluted in 5% non-fat milk in TBS-T (TBS-T=20 mM Tris-Hcl at pH 7.6, 0.14M NaCl and 0.1% Tween-20).
(§2) The purified mPBP was tested for its biochemical activities using the prostasin binding assay. Complex formation between mPBP and purified prostasin was analyzed by western blotting using the mPBP antibody and a prostasin antibody. […] The complex was detected after 30 seconds of incubation and progressed during the incubation time course (60 minutes). […] The complex formation of prostasin and mPBP was used as a control (FIG. 4C, lane 2).
(§3) It has been known that PN-1 can form complexes with various serine proteases, including thrombin. […] We also tested if the complex is pH dependent because prostasins's optimum pH is 9.0. […] We further tested if heparin may have a different effect on the complex formation between prostasin-mPBP versus on that between thrombin-mPBP.

prostasin [1] = molecular target: T2, prostasin (Homo sapiens, UniProt Q16651); assay: Complex formation of recombinant GST-PN-1 with recombinant prostasin (immunoblot); type: binding; parameters: made in house; conditions: for complex formation of GST-PN-1 fusion protein with prostasin: 0.5 micrograms recombinant prostasin, 37 degrees C., 60 minutes
Experimental: To establish if mPBP is indeed protease nexin-1, mouse and human protease nexin-1 (PN-1) cDNA were cloned into the pGEX-6P-1 expression vector. The recombinant protein products have the schistosomal glutathione-S-transferase (GST) fused to t he N-terminus of the PN-1. The GST fusion proteins were affinity-purified using glutathione-conjugated agarose-beads. For each type of recombinant protein, cleared supernatant of cell lysate from one liter of culture was incubated with 1 ml of […] glutathione-beads. The beads were eluted with 1 ml of fresh 10 mM glutathione in 50 mM Tris-Hcl, pH 8.0. Twenty microliters of the eluent were incubated with 0.5 micrograms of recombinant prostasin at 37 degrees C. for 60 minutes in the absence or presence of aprotinin. Both the GST-mPN-1 (FIG. 8, lane 1 alone at 64 kDa) and the GST-hPN-1 (FIG. 8, lanes 2 and 5). […] An immunoreactive band at 30 kDa and two other minor immunoreactive bands at 42 kDa and 60 kDa were likely the products of non-specific degradation of the recombinant PN-1, since no protease inhibitors were added in the cell lysate during purification.

thrombin-mPBP complex = molecular target: T3, thrombin-mPBP complex (Homo sapiens, UniProt P00734); assay: Effect of heparin on complex formation between thrombin and mPBP; type: binding; conditions: heparin at 0.25 unit/reaction, FIG. 6B
T3 construct: mPBP: purified from mouse seminal vesicle fluid
Text: as §3

prostasin [2] = molecular target: T2, prostasin; assay: Enzymatic assay with QAR-AMC substrate (residual activity of prostasin); type: biochemical; parameters: made in house
Experimental: Recombinant human prostasin was purified as described in Chen et al. A synthetic substrate, N-t-Boc-Gln-Ala-Arg-7-amido-4-methyl coumarin (QAR-AMC) was purchased from Sigma-Aldrich. The purified mPBP (concentration range 0-0.4 micromolar) was incubated with prostasin (0.8 micromolar) for 30 mins at 37 degrees C. The binding reaction mixture (20 microliters) was then added to 80 microliters of […] Tris-HCL) pH 8.0/0.1% bovine serum albumin containing the QAR-AMC substrate (final concentration: 100 micromolar) in 96-well microtiter plates (Costar 3903, Cambridge, Mass.). The velocity of substrate hydrolysis was measured using a Wallac 1420 Victor mulitlabel counter at wavelength 355 nm and wavelength 460 nm. The residual activity of prostasin (velocity of the inhibited enzyme reaction/velocity of the uninhibited enzyme reaction) as plotted versus the mPBP concentration.
QAR-AMC was used as a substrate for prostasin to test the inhibitory activity of the purified mPBP. Pprostasin (0.8 micromolar) was incubated with 0, 0.05, 0.1, 0.2 or 0.4 micromolar mPBP at 37 degress C. for 30 mins. The reaction mixture was then to the assay buffer containing a final concentration of 100 micromolar QAR-AMC substrate.

[3] = molecular target: T4, purified recombinant prostasin (Homo sapiens, UniProt Q16651); assay: Prostasin-binding assay (complex formation, western blot)
T4 construct: made in house
Experimental: as §1, §2

thrombin [4] = molecular target: T5, thrombin (Homo sapiens, UniProt P00734); assay: Complex formation between thrombin and mPBP; type: binding
Text: as §3

prostasin [5] = molecular target: T2, prostasin; assay: Membrane-overlay zymography of prostasin activity; type: biochemical
thrombin [6] = molecular target: T5, thrombin; conditions: cited from earlier work
factor Xa = conditions: cited from earlier work
[7] = binding conditions of increasing pH

T2 sequence (Q16651 33-343): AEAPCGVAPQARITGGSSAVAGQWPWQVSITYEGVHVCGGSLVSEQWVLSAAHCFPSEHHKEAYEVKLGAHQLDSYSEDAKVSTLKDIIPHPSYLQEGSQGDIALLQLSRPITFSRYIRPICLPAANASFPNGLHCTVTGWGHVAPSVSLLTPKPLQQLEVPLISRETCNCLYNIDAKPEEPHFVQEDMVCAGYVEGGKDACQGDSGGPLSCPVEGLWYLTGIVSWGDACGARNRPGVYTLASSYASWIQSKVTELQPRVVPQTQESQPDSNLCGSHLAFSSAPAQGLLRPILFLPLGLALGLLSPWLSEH
T4 sequence (Q16651 33-343): as above

Molecule: O=S(=O)(F)Cc1ccccc1 [PMSF]
effect on prostasin-mPBP complex formation (prostasin-mPBP complex; FIG. 4C): inhibited

B1: GST-mPN-1: recombinant mouse PN-1 with glutathione-S-transferase fused to the N-terminus (protein)
chain: SQFNSLSLEELGSNTGIQVFNQIIKSRPHENVVVSPHGIASILGMLQLGADGKTKKQLSTVMRYNVNGVGKVLKKINKAIVSKKNKDIVTVANAVFLRNGFKMEVPFAVRNKDVFQCEVQNVNFQDPASASESINFWVKNETRGMIDNLLSPNLIDGALTRLVLVNAVYFKGLWKSRFQPESTKKRTFVAGDGKSYQVPMLAQLSVFRSGSTRTPNGLWYNFIELPYHGESISMLIALPTESSTPLSAIIPHITTKTIDSWMNTMVPKRMQLVLPKFTAVAQTDLKEPLKALGITEMFEPSKANFTKITRSESLHVSHILQKAKIEVSEDGTKASAATTAILIARSSPPWFIVDRPFLFSIRHNPTGAILFLGQVNKP
modifications: left off: a dimerising Fc or GST
notes: recombinant mouse PN-1 with glutathione-S-transferase fused to the N-terminus
complex formation of GST-PN-1 fusion protein with prostasin (prostasin [1]): form a 100 kDa complex

B2: GST-hPN-1: recombinant human PN-1 with glutathione-S-transferase fused to the N-terminus (protein)
chain: SHFNPLSLEELGSNTGIQVFNQIVKSRPHDNIVISPHGIASVLGMLQLGADGRTKKQLAMVMRYGVNGVGKILKKINKAIVSKKNKDIVTVANAVFVKNASEIEVPFVTRNKDVFQCEVRNVNFEDPASACDSINAWVKNETRDMIDNLLSPDLIDGVLTRLVLVNAVYFKGLWKSRFQPENTKKRTFVAADGKSYQVPMLAQLSVFRCGSTSAPNDLWYNFIELPYHGESISMLIALPTESSTPLSAIIPHISTKTIDSWMSIMVPKRVQVILPKFTAVAQTDLKEPLKVLGITDMFDSSKANFAKITTGSENLHVSHILQKAKIEVSEDGTKASAATTAILIARSSPPWFIVDRPFLFFIRHNPTGAVLFMGQINKP
modifications: left off: a dimerising Fc or GST
notes: recombinant human PN-1 with glutathione-S-transferase fused to the N-terminus
complex formation of GST-PN-1 fusion protein with prostasin (prostasin [1]): form a 100 kDa complex

B4: PN-1: protease nexin-1, a serine protease inhibitor (serpin) (protein)
chain: B1 chain
inhibitory activity of PN-1 to thrombin in the presence of heparin (thrombin [6]): enhanced
inhibitory activity of PN-1 to factor Xa in the presence of heparin (factor Xa): enhanced

Now from value to molecule, other results behind:

effect on prostasin-mPBP complex formation (prostasin-mPBP complex; FIG. 4C): inhibited
effect on GST-PN-1/prostasin complex formation (prostasin [1]; in the presence of aprotinin, FIG. 8 lanes 3 and 6): inhibited
Molecule: aprotinin [reference compound]

effect on prostasin-mPBP complex formation (prostasin-mPBP complex; FIG. 4C): inhibited
effect on prostasin-mPBP complex formation (prostasin-mPBP complex; heparin at 0.25 unit/reaction, FIG. 6B): completely abolished
effect on thrombin-mPBP complex formation (thrombin-mPBP complex): not between thrombin-PMP
Molecule: heparin
effect on prostasin inhibition by mPBP (prostasin [2]; pre-incubation of mPBP and heparin, QAR-AMC substrate): able to prevent prostasin inhibition by mPBP

pH dependence of complex formation of mPBP and prostasin [3, 7]: increased with higher pH
complex formation with prostasin ([3]; purified mPBP, western blot): formed a complex with prostasin
incubation time after which the prostasin-mPBP complex was detected ([3]; time course up to 60 minutes, 37 degrees C.): 30 s
pH dependence of complex formation of mPBP and thrombin (thrombin [4]; [7]): somewhat decreased with increasing pH
inhibition of prostasin's activity by membrane-overlay zymography (prostasin [5]): inhibits prostasin's activity
inhibition of prostasin's activity (prostasin [2]; prostasin 0.8 micromolar with 0-0.4 micromolar mPBP, 37 degrees C., 30 mins, 100 micromolar QAR-AMC): inhibited in a dose dependent manner
B3: mPBP: mouse prostasin-binding protein purified from mouse seminal vesicle fluid, 45 kDa; identified as the serpin protease nexin-1 (protein)
chain: B1 chain
complex formation with thrombin (thrombin [4]; purified mPBP): formed a complex with prostasin as well as thrombin
